The values below come from article PMC10187669.

Data set [1] concerns the target T1, ZBP1 KH3-KH4 (ZBP1KH34) (Gallus gallus, UniProt O42254 404-561). In words: EMSA.
Data set [2] concerns the target T1, ZBP1 KH3-KH4 (ZBP1KH34). In words: EMSA. This is another data set of the same source.

Where two headings read alike, the source gives them in different places.

T1 sequence (O42254 404-561): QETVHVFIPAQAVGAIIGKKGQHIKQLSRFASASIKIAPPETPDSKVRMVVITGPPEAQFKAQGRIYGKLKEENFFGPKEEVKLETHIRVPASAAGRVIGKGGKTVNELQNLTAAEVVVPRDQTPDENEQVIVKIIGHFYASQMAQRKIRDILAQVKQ

For the molecule ACCGGACUGUUACCAACACCCACACCCC (ssRNA, m6A at position 6) [B oligonucleotide: zipcode m6A site 1202 (GGm6ACU)], the binding result in data set [1] was “binds”.

On to ACCGGACUGUUACCAACACCCACACCCC (ssRNA) [A oligonucleotide: chicken beta-actin zipcode unmodified], for which the binding result in data set [2] is recorded as “binds”.
